How the values were obtained:
[1] = target: AfsR SARP domain;RNAP-sigmaHrdB holoenzyme;RbpA;CarD (Streptomyces coelicolor …, UniProt P25941;P60312;Q9L0L0;Q8CJT1;P18183;Q9KXS1;Q9RKY0;Q9L0Q9 …, |||); experiment: cryo-EM; 3.35 A; open complex, 13-nt bubble; FP: 20 mM HEPES pH 7.5, 100 mM NaCl, 5 mM MgCl2, 2 mM DTT, 5% glycerol, 0.1 ug/ml poly(dI-dC), 10 nM DNA, 30 C, 20 min; details: protein: recombinant;;recombinant;recombinant; tags: pET28a His tag (Ni-NTA);;pET28a His tag (Ni-NTA);pET28a His tag (Ni-NTA); chain copies: 2;2;1;1;1;1;1;1; 44 bp duplex, 6-nt mismatched bubble (-6 to -1), 15 bp duplex
[2] = target: T1, AfsR SARP domain (Streptomyces coelicolor M145, UniProt P25941 1-270); experiment: fluorescence polarization; 5 mM Mg2+; poly(dI-dC); FP: 20 mM HEPES pH 7.5, 100 mM NaCl, 5 mM MgCl2, 2 mM DTT, 5% glycerol, 0.1 ug/ml poly(dI-dC), 10 nM DNA, 30 C, 20 min; details: protein: recombinant; tags: pET28a His tag (Ni-NTA); chain copies: 2; label: 5'-FAM; blunt
T1 sequence: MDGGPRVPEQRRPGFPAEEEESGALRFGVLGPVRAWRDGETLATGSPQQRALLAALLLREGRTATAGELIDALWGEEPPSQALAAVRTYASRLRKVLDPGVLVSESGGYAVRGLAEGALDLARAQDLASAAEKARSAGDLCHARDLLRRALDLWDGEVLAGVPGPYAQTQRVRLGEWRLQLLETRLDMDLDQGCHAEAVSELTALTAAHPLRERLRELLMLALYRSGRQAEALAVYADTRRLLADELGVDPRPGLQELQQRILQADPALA

[3] = target: T2, AfsR 4E (Streptomyces coelicolor M145, UniProt P25941 1-993, S391E;T337E;T506E;S953E); experiment: fluorescence polarization; stronger than dephosphorylated AfsR; FP: 20 mM HEPES pH 7.5, 100 mM NaCl, 5 mM MgCl2, 2 mM DTT, 5% glycerol, 0.1 ug/ml poly(dI-dC), 10 nM DNA, 30 C, 20 min; details: protein: recombinant; tags: pET28a His tag (Ni-NTA); chain copies: 2; label: 5'-FAM; blunt
T2 sequence: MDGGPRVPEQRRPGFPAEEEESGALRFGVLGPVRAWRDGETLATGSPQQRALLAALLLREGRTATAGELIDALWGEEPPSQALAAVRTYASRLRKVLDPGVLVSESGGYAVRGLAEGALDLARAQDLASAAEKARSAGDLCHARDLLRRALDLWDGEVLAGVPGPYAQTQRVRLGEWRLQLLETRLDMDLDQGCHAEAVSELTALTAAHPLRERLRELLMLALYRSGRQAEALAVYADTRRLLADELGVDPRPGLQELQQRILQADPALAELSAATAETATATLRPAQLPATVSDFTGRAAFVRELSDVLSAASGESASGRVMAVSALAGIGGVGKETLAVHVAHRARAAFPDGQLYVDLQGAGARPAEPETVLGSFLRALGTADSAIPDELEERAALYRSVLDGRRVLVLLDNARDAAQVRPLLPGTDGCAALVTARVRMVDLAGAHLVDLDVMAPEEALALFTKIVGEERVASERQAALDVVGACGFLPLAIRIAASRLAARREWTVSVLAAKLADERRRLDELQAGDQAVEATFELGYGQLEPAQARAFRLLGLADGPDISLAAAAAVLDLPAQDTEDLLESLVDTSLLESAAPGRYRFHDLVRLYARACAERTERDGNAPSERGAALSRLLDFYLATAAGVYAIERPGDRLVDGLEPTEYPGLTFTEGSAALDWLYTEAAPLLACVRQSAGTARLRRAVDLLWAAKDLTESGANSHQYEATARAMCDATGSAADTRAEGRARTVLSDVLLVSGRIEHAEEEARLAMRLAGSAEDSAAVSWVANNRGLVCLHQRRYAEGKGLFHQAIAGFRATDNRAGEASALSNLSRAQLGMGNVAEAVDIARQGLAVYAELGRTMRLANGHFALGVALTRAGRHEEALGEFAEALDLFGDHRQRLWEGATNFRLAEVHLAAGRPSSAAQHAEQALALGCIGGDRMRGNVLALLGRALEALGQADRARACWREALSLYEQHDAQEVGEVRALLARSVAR

[4] = target: T3, AfsR, dephosphorylated (Streptomyces coelicolor M145, UniProt P25941 1-993); experiment: fluorescence polarization; preincubated with ATP; DNA binding unchanged; FP: 20 mM HEPES pH 7.5, 100 mM NaCl, 5 mM MgCl2, 2 mM DTT, 5% glycerol, 0.1 ug/ml poly(dI-dC), 10 nM DNA, 30 C, 20 min; details: protein: recombinant; tags: pET28a His tag (Ni-NTA); chain copies: 2; label: 5'-FAM; blunt
T3 sequence: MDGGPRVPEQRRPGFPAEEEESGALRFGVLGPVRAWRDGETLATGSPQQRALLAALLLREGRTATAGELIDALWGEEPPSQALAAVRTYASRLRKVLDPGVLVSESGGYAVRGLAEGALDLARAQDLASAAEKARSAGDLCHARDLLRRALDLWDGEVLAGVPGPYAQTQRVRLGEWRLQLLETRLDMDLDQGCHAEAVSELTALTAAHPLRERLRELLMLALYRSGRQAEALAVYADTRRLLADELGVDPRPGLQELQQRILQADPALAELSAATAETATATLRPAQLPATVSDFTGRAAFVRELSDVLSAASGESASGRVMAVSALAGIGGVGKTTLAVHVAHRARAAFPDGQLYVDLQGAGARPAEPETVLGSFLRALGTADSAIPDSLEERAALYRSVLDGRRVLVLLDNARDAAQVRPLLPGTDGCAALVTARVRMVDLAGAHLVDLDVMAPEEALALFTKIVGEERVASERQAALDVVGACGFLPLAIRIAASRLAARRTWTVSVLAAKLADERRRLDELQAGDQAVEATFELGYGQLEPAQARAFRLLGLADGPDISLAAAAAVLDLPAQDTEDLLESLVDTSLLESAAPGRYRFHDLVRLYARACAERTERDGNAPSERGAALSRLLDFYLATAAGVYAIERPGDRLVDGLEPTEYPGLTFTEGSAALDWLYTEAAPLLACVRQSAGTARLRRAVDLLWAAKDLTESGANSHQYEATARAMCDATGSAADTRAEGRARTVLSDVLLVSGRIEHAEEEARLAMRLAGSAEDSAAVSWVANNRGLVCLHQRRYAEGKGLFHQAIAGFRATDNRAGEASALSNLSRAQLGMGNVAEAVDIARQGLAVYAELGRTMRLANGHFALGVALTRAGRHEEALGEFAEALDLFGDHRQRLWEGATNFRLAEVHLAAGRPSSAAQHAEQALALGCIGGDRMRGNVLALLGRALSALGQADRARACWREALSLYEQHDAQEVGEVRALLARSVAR

[5] = target: SARP domain of Streptomyces coelicolor AfsR (residues 1 to 270) (S. coelicolor) (UniProt P25941); experiment: cryo-EM structure; SARP-TIC: 32 uM SARP preincubated with 5 uM afsS promoter DNA scaffold, mixed with 4 uM RNAP core, 16 uM σ^HrdB, 16 uM CarD, 32 uM RbpA; 25°C; 20 mM Tris-HCl pH 8.0, 50 mM KCl, 5 mM MgCl2, 3 mM DTT; Superose 6; nominal resolution 3.35 Å, SARP region 3.77 Å
[6] = target: T4, Streptomyces coelicolor RNA polymerase sigma factor σ^HrdB (S. coelicolor, UniProt P18183 1-511); experiment: as above; details: both partners purified
T4 construct: principal sigma factor HrdB, S. coelicolor; region 1.1 disordered in the map; Stood in the assay as part of the RNAP σ^HrdB-holoenzyme; also called σ subunit; σ R4 (region 4); source: purified as described previously [37]
T4 sequence: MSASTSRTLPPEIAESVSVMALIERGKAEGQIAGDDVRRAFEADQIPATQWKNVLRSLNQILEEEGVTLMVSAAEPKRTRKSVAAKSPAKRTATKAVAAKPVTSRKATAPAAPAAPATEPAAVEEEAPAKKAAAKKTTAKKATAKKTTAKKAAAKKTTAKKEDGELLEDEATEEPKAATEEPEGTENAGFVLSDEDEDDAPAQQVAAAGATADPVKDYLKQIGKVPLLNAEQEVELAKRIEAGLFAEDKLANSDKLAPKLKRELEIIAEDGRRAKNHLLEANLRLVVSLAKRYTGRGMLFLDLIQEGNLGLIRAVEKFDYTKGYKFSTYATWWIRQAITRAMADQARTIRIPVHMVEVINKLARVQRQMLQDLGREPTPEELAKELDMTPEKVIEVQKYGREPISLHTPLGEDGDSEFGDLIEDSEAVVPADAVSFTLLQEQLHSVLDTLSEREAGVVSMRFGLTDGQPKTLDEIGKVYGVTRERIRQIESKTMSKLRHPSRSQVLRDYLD

[7] = target: T5, Streptomyces coelicolor RNA polymerase β subunit (S. coelicolor, UniProt Q9L0L0 1-1161); experiment: as above; details: both partners purified
T5 construct: RNA polymerase subunit beta, S. coelicolor; Stood in the assay as a subunit of the RNAP core in the holoenzyme; also called RNAP β; β flap; source: S. coelicolor RNAP purified as described previously [37]

[8] = target: T6, Streptomyces coelicolor RNA polymerase β′ subunit (S. coelicolor, UniProt Q8CJT1 1-1299); experiment: as above; details: both partners purified
T6 construct: RNA polymerase subunit beta', S. coelicolor; Stood in the assay as a subunit of the RNAP core in the holoenzyme; also called RNAP β′; β′ ZBD; source: S. coelicolor RNAP purified as described previously [37]

[9] = target: T7, Streptomyces coelicolor RNA polymerase α subunit (S. coelicolor, UniProt P60312 1-340); experiment: as above; details: both partners purified
T7 construct: RNA polymerase subunit alpha, S. coelicolor; Stood in the assay as a subunit of the RNAP core in the holoenzyme; density for one αCTD is seen; also called αCTD (C-terminal domain of the α subunit); source: S. coelicolor RNAP purified as described previously [37]
T7 sequence: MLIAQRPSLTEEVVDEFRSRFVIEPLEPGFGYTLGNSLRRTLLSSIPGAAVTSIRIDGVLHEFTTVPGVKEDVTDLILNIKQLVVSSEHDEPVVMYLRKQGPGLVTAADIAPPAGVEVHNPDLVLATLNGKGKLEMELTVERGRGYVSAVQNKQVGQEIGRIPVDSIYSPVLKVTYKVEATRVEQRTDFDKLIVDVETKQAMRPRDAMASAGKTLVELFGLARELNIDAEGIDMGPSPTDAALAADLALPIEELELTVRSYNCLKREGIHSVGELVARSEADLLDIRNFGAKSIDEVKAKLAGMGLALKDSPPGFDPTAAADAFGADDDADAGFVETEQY

B1: afsS promoter scaffold -50 to +15, 6-nt bubble (dsDNA)
DNA 1: GTAGCCGGAGCGTTCAGCGTTCGTTTATCTCCCCCTGGCACTGTCATCTCCGTCAGACCGTCGCA
DNA 2: TGCGACGGTCTGACGCTCTACACAGTGCCAGGGGGAGATAAACGAACGCTGAACGCTCCGGCTAC
B1: binds [1].

B2: afs box (-45 to -14) (dsDNA)
DNA 1: CGGAGCGTTCAGCGTTCGTTTATCTCCCCCTG
DNA 2: CAGGGGGAGATAAACGAACGCTGAACGCTCCG
B2: binds [2]; binds [3]; binds [4].

B3: SARP domain of Streptomyces coelicolor AfsR (residues 1 to 270) (domain or fragment, S. coelicolor, UniProt P25941 1-270, looked up)
chain: MDGGPRVPEQRRPGFPAEEEESGALRFGVLGPVRAWRDGETLATGSPQQRALLAALLLREGRTATAGELIDALWGEEPPSQALAAVRTYASRLRKVLDPGVLVSESGGYAVRGLAEGALDLARAQDLASAAEKARSAGDLCHARDLLRRALDLWDGEVLAGVPGPYAQTQRVRLGEWRLQLLETRLDMDLDQGCHAEAVSELTALTAAHPLRERLRELLMLALYRSGRQAEALAVYADTRRLLADELGVDPRPGLQELQQRILQADPALA
notes: AfsR, S. coelicolor M145, SARP domain, residues 1 to 270 (Met1-Ala270); Two protomers (upstream and downstream) stand on the afs box DNA in SARP-TIC; also called isolated SARP domain; wild-type SARP; source: E. coli BL21(DE3), purified (nickel-NTA, SEC Superdex 200)
In the case of B3, the stoichiometry N [5] is reported as 2, the binding result [6] is reported as “binds” and the binding result [7] is reported as “binds”. B3: binds [8]; binds [9].
